Assays:
[1] = target: FnBP purified from S. aureus strain Newman (Staphylococcus aureus); assay: competition ELISA on FnBP-coated wells; competitor anti-D320-33 F(ab')2 at 100 µg/ml
[2] = target: FnBP purified from S. aureus strain Newman (Staphylococcus aureus); assay: competition ELISA on FnBP-coated wells; competitor anti-D121-34 F(ab')2 at 100 µg/ml

Human plasma Fn, P02751 32-2296 (ligand), sequence (P02751 other isoform, or with tags, fused parts or gaps limits assumed): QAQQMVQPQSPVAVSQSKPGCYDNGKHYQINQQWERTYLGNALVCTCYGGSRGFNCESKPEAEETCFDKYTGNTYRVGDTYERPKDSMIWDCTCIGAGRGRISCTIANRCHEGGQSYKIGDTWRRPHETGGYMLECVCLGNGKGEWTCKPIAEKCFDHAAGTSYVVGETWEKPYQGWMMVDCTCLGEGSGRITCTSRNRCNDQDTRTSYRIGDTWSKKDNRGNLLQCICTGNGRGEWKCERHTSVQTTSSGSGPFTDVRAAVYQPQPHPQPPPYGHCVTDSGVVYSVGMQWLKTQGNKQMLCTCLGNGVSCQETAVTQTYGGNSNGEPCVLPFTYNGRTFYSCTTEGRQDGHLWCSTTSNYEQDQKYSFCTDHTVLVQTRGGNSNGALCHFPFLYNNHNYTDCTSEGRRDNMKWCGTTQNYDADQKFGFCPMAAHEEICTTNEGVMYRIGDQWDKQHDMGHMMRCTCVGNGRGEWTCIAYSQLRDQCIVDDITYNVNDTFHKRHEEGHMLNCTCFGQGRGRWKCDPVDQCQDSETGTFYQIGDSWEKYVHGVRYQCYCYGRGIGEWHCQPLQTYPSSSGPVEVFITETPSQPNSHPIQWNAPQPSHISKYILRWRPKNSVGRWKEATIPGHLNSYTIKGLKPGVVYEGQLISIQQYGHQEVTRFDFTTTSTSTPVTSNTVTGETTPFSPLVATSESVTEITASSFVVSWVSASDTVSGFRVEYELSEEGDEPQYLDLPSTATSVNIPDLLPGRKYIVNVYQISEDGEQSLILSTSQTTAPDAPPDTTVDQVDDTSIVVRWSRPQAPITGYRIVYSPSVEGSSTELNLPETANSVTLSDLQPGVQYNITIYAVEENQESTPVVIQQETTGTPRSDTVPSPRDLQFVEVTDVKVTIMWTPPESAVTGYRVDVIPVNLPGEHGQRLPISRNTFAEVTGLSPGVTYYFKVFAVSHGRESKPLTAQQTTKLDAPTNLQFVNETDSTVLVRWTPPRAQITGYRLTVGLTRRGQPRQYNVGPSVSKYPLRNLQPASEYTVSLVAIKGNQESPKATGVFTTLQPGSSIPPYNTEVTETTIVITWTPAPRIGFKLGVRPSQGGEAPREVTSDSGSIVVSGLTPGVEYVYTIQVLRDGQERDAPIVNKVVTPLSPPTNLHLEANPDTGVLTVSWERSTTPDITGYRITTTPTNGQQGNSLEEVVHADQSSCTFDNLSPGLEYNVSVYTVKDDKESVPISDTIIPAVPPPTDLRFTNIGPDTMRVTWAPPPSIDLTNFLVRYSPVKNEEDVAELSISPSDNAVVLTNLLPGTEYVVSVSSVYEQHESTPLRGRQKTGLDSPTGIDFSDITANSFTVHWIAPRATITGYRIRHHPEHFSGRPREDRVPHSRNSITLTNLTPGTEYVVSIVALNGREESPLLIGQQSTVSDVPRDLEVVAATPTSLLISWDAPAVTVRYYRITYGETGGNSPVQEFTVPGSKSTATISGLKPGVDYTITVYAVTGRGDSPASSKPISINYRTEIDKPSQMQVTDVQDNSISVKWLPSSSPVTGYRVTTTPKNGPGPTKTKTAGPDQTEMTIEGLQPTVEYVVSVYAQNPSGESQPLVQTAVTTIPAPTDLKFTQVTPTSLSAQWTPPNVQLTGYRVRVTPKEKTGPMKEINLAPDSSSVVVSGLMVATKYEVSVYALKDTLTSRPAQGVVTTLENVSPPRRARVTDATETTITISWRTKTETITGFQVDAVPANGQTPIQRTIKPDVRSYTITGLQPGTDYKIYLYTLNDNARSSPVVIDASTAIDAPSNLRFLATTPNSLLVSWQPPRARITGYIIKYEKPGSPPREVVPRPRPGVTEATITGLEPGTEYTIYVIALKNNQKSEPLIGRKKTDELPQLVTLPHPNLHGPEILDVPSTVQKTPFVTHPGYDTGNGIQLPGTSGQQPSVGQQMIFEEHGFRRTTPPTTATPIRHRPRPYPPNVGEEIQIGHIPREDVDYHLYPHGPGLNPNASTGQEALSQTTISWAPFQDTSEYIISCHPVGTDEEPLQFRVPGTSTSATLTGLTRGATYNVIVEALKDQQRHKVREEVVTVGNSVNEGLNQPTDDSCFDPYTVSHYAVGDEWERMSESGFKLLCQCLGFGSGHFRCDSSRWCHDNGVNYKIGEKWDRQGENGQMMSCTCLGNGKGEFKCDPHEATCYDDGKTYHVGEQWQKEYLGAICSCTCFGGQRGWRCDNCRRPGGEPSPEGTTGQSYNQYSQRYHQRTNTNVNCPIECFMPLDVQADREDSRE

“Human plasma Fn, P02751 32-2296 (ligand)” showed a concentration of soluble Fn at which F(ab')2 recognition of FnBP was virtually eliminated [1] of 50 µg/mL and a concentration of soluble Fn at which F(ab')2 recognition of FnBP was virtually eliminated [2] of 50 µg/mL.

Reference: patent publication US20070110748A1
